{"source": "FireProtDB (doi:10.1021/bi960855h)", "proteins": {"B1": {"name": "Ribonuclease pancreatic wild type, P61823 (protein)", "chain": "MALKSLVLLSLLVLVLLLVRVQPSLGKETAAAKFERQHMDSSTSAASSSNYCNQMMKSRNLTKDRCKPVNTFVHESLADVQAVCSQKNVACKNGQTNCYQSYSTMSITDCRETGSSKYPNCAYKTTQANKHIIVACEGNPYVPVHFDASV"}}, "settings": "Bos taurus, Thermal, DSC, NaCl 200 mM, reversible: yes, whole UniProt chain shown", "key": {"[1]": {"settings": "pH 4, Acetic acid-Sodium acetate 10 mM"}, "[2]": {"settings": "pH 5, Acetic acid-Sodium acetate 10 mM"}}, "data": [{"protein": "B1", "values": [{"measurement": "Tm", "setting": "[1]", "value": 44.6, "unit": "°C"}, {"measurement": "heat capacity change of unfolding", "setting": "[1]", "value": 1.24, "unit": "kcal/mol/K"}, {"measurement": "unfolding enthalpy (calorimetric)", "setting": "[1]", "value": 94.5, "unit": "kcal/mol"}, {"measurement": "unfolding enthalpy (van 't Hoff)", "setting": "[1]", "value": 98.1, "unit": "kcal/mol"}, {"measurement": "Tm", "setting": "[2]", "value": 45.5, "unit": "°C"}, {"measurement": "heat capacity change of unfolding", "setting": "[2]", "value": 1.2, "unit": "kcal/mol/K"}, {"measurement": "unfolding enthalpy (calorimetric)", "setting": "[2]", "value": 95.7, "unit": "kcal/mol"}, {"measurement": "unfolding enthalpy (van 't Hoff)", "setting": "[2]", "value": 96.9, "unit": "kcal/mol"}, {"measurement": "Tm", "setting": "pH 6, MES 10 mM", "value": 46.8, "unit": "°C"}, {"measurement": "heat capacity change of unfolding", "setting": "pH 6, MES 10 mM", "value": 1.17, "unit": "kcal/mol/K"}, {"measurement": "unfolding enthalpy (calorimetric)", "setting": "pH 6, MES 10 mM", "value": 98.1, "unit": "kcal/mol"}, {"measurement": "unfolding enthalpy (van 't Hoff)", "setting": "pH 6, MES 10 mM", "value": 100, "unit": "kcal/mol"}, {"measurement": "Tm", "setting": "pH 6.5, MES 10 mM", "value": 47.2, "unit": "°C"}, {"measurement": "heat capacity change of unfolding", "setting": "pH 6.5, MES 10 mM", "value": 1.22, "unit": "kcal/mol/K"}, {"measurement": "unfolding enthalpy (calorimetric)", "setting": "pH 6.5, MES 10 mM", "value": 99.3, "unit": "kcal/mol"}, {"measurement": "unfolding enthalpy (van 't Hoff)", "setting": "pH 6.5, MES 10 mM", "value": 100, "unit": "kcal/mol"}, {"measurement": "Tm", "setting": "pH 7, MOPS 10 mM", "value": 50.1, "unit": "°C"}, {"measurement": "heat capacity change of unfolding", "setting": "pH 7, MOPS 10 mM", "value": 1.22, "unit": "kcal/mol/K"}, {"measurement": "unfolding enthalpy (calorimetric)", "setting": "pH 7, MOPS 10 mM", "value": 103, "unit": "kcal/mol"}, {"measurement": "unfolding enthalpy (van 't Hoff)", "setting": "pH 7, MOPS 10 mM", "value": 102, "unit": "kcal/mol"}, {"measurement": "Tm", "setting": "pH 7.5, MOPS 10 mM", "value": 50.6, "unit": "°C"}, {"measurement": "heat capacity change of unfolding", "setting": "pH 7.5, MOPS 10 mM", "value": 1.2, "unit": "kcal/mol/K"}, {"measurement": "unfolding enthalpy (calorimetric)", "setting": "pH 7.5, MOPS 10 mM", "value": 104, "unit": "kcal/mol"}, {"measurement": "unfolding enthalpy (van 't Hoff)", "setting": "pH 7.5, MOPS 10 mM", "value": 105, "unit": "kcal/mol"}]}]}
